{
  "source": "patent WO2011097527A2",
  "key": {"[1]": {"target": "FcγRIIb on the cell surface (UniProt P31994)", "experiment": "binding to cell-surface FcγRIIb (cells and method not stated)"}, "[2]": {"target": "recombinant human FcγRIIb (human) (UniProt P31994)", "experiment": "SPR (Biacore), global Langmuir fit"}},
  "data": [
    {"substance": "S239D/S267E (antibody)", "values": [
      {"measurement": "EC50", "setting": "[1]", "result": 2, "unit": "nM"},
      {"measurement": "Fold (cell surface EC50 against native IgG1)", "setting": "[1]", "result": 220, "unit": "fold"},
      {"measurement": "Fold (KD(Native IgG1)/KD(variant))", "setting": "[2]", "result": 150, "unit": "fold"},
      {"measurement": "Kd", "setting": "[2]", "result": 12, "unit": "nM"}
    ]}
  ]
}
